# Results reported in patent publication US20190135872A1.
# What was measured:
# [1] = target: +N332 N276Q/N360Q/N463Q/N301Q (HIV-1 16055 (Indian subtype C)); assay: negative-stain EM, 2D classes of trimer-Fab complexes
# [2] = target: +N332 PT (HIV-1 16055 (Indian subtype C)); assay: as above
# [3] = target: +N332 N276Q/N360Q/N463Q (HIV-1 16055 (Indian subtype C)); assay: BLI, trimer on anti-His sensor, Fab analyte
# [4] = target: N276Q/N463Q trimer (PT backbone) (HIV-1 16055 (Indian subtype C)); assay: BLI, trimer on anti-His sensor, Fab analyte
# [5] = target: +N332 N301Q (HIV-1 16055 (Indian subtype C)); assay: BLI, trimer on anti-His sensor, Fab analyte
# [6] = target: +N332 N276Q/N360Q/N463Q/N301Q (HIV-1 16055 (Indian subtype C)); assay: BLI, trimer on anti-His sensor, Fab analyte
# [7] = target: +N332 N276Q/N360Q/N463Q (HIV-1 16055 (Indian subtype C)); assay: BLI (Octet): trimer on anti-His sensor, Fab in solution, 1:1 global fit
# [8] = target: N276Q/N463Q trimer (PT backbone) (HIV-1 16055 (Indian subtype C)); assay: as above
# [9] = target: 16055 NFL TD CC (T569G) (HIV-1 16055 (Indian subtype C)); assay: as above
# [10] = target: +N332 N301Q (HIV-1 16055 (Indian subtype C)); assay: as above
# [11] = target: +N332 N276Q/N360Q/N463Q/N301Q (HIV-1 16055 (Indian subtype C)); assay: as above
# [12] = target: +N332 PT (HIV-1 16055 (Indian subtype C)); assay: as above
substance,measurement,setting,value
VRC03 Fab,share of trimers unliganded,[1],22%
same,share of trimers with 1 Fab,[1],23%
same,share of trimers with 2 Fabs,[1],30%
same,share of trimers with 3 Fabs,[1],25%
same,share of trimers unliganded,[2],19%
same,share of trimers with 1 Fab,[2],20%
same,share of trimers with 2 Fabs,[2],34%
same,share of trimers with 3 Fabs,[2],27%
same,fold difference in affinity vs +N332 PT,[3],10 fold
same,fold more efficient recognition vs PT,[4],30 fold
same,fold lower binding vs +N332 PT,[5],2 fold
same,fold difference in affinity vs +N332 PT,[6],8 fold
same,Kd,[7],0.0129 µM
same,koff,[7],0.000739 s⁻¹
same,kon,[7],57100 M⁻¹ s⁻¹
same,Kd,[8],0.0086 µM
same,koff,[8],0.000505 s⁻¹
same,kon,[8],58700 M⁻¹ s⁻¹
same,Kd,[9],0.241 µM
same,koff,[9],0.0026 s⁻¹
same,kon,[9],10800 M⁻¹ s⁻¹
same,Kd,[10],0.27 µM
same,koff,[10],0.0037 s⁻¹
same,kon,[10],13700 M⁻¹ s⁻¹
same,Kd,[11],0.0164 µM
same,koff,[11],0.00124 s⁻¹
same,kon,[11],75400 M⁻¹ s⁻¹
same,Kd,[12],0.131 µM
same,koff,[12],0.00204 s⁻¹
same,kon,[12],15600 M⁻¹ s⁻¹
